Assay results as given in the nanobody polyreactivity screen of Harvey et al. (2022).

Test: yeast display, Sf9 membrane polyspecificity reagent, FACS + sequencing; frameworks hold sequencing errors
How it was run: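 Polyreactivity labels are assigned by the sorting gate from which each nanobody was recovered. The gates were low and high (top ~1%), set on anti-HA fluorescence for expression and streptavidin fluorescence for reagent binding. Before sorting, galactose-induced (36–48 hours) yeast display cells were stained for 1 hour at 4 °C with 10% biotinylated, detergent-solubilized Sf9 membrane reagent.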

| Sequence | polyreactivity (PSR sort gate) |
| --- | --- |
| QVQLVESGGGLVQAGGSLRLSCAASGSIIDYNAMGWYRQAPGKERELVAAIDWSGSSTYYADSVKGRFTISRDNAKNTVYLQMNSLKPEDTAVYYCNALAYYGMDYWGQGTQVTVSS | low polyreactivity |
| QVQLVESGGGLVQAGGSLRLSCAASGRILGWNAMGWYSPAPGKVRELVAGISSSGGSTYYADSVKGRFTISRHNAKNTVNIQMNSLKPEDTAVYYCAAVVWLSSANRRYYYWGQGTQVTVSS | high polyreactivity |
| QVQLVESGRGLVQAGGSLRLSCAASGRTFDGYAMGWYRQAPGKERELVAAIDYDGVSTYYADSVKGRFTISRDNAKNTVYLPMHSLKPEDTAVYFCAVDATDDWWLDYWGQGTQVSVSS | low polyreactivity |
| QVQLVESGGGLVQAGGSLRLSCAASGRTFRTYAMGWYRQAPGKERELVAAISFSDGSTYYADSVKGRFTISRDNAKNTVYLQMNSLKPEDTAVYYCAKEYEYPYYIRYQVGYDFDYWGQGTEVTVSS | low polyreactivity |
| QVQLVESGGGLVQAGGSLRLSCAASGLTLGRNAMGWYRQAPGKERELVAAITQSGGSTYYADSVKGRFTISRDNAKNTVYLQMNSLKAEDTAVYYCAAEVVRQWHGIGYDYWGQGTQVTVSS | low polyreactivity |
| QVQLVESGGGLVQAGGSLRLSCAASGFTFRYNAMGWYRQAPGKKGSWVAAISRTGGSTYYADSVKGRFTISRDNAKNTVYLQMNSLKPEDTAVYYCATYSSRQRKSSYYYWGQGTQVTVSS | high polyreactivity |
| QVQLVESGGGLVQAGGSLRLSCAASGRTFYEYAKGWYRQAPGKERELVAGITSGGSTNYADSVKGRFTISRDNEKNTVYLQMNSLKPEDTAVYYCAASYWGYEYDYWGQGTQVTVSS | low polyreactivity |
| QVQLVESGGGIVQAGRSLRLSCSASGFIFAIKAMGWYRQAPGKERELVAAITGGGSTSYADSVKGRFTISRDNAKNTVYLQMNSLKPEDTAVYYCATDRLTYTKYGYWGQGTQVTVSS | low polyreactivity |
| QVQLVESGGGLVQAGGSLRLSCAASGSTLAGYAMGWYRQAPGKERELVAAIDWTGGSTTYADSVKGRFTISRDNAKNTVYLQMNSLKPEDTAVYYCNVDLGVNGDYWGQGTQVTVSS | low polyreactivity |
| QVQRVESGGGLVQAGGSLRLSCAASGRTFAPNAMGWYRQAPGKERELVAAITRRTGSTYYADSVKGRFTISRDNAKNTVYLQMNSLKPEDTAVYYCNGRRRTWYGFYYWGQGTQVTVSS | high polyreactivity |
| QGQLVESGGGLVQAGGSLRLSCAASGRTFTDYAMGWYRQAPGKEWELVADISGSGGSTYYADSVKGRFTISRDNAKNTVYLQMNSLNPEDTAVYYCNAVGSRRDKFDYWGQGTQVTVSS | low polyreactivity |
| QVQLVESGGGLVQAGGSLRLSCAASGIIFSGNAMGWYRQAPGKERELVAAITRGGRTYYADSVKGRFTISRDNAKNTVYLQMNSLKPEDTAVYYCAAGYPYSYRDYYYWGQGTQVTVSS | high polyreactivity |
| QVQLVESGGGLVQAGGSLRLSCAASGSIFYPNAMGWYRQAPGKERELVAAINGGGSTYYADSVKGRFTISRDNAKNTVYLQMNSLKPEDTAVYYCAADSNDVYYDTPSYDYWGQGTQVTVSS | low polyreactivity |
| QVQLVESGGGLVQAGGSLRLSCAASGSIFFWYTMGWYRQAPGKERELVATITGSGSSTTYADSVKGRFTISRDYAKNTVYLQMNSLKPEDTAVYYCAAADIIDHSFPYDYWGQGTQVTVSS | low polyreactivity |
| QVQLVESVGGLVQAGGSLRLSCAASGSIFRLYAMGWYRQAPGKERELVAAITWSGGSTYYADSVKGRFTISRDNAKNTVYLQMNSLKPEDTAVYYCNALVGGYRSAIFGYWGQGTQVTVSS | high polyreactivity |
| QVQLVESGGGLVQAGGSLRLSCAASGYIFGVNALGWYRQAPGKERELVAAIDSGSRTYYADSVKGRFTISRDNAKNTVYLQMNSLKPEDTAVYYFATTFYVSYGGGYYTIWYDYWGQGTQVTVSS | low polyreactivity |
| QVQLVESGGGLVQAGGSLRLSCAASGRTFFYNAMGWYRQAPGKERELVAAISGRGGRTYYADSVKGRFTISRDNAKNTVHLQMNSLKPEDTAVYYCAADAGPLRYDYWGQGTQVTVSS | high polyreactivity |
| QVQLVESGGGLVQAGGSLRLSCAASGSTFQSNAMGWYRQAPGKERELVASITDSGGRTYYADSVKGRFTSSRDNAKNTVYLQMNSLKPEDTAVYYCAAVSLWWSDYYFVEYDYWGQGTQVTVSS | high polyreactivity |
| QVQLVESGGGLVQAGGSLRLSCAASGRTFGQNTMGWYRQAPGKERELVAAIRNRGGSTYYADSVKGRFTISRDNAKKTGYVQMNSLKPEDTAVYYCAAYPYWKGDYWGQGTQVTVSS | high polyreactivity |
| QVQLVESGGGLVQAGGSLRLSCAASGSIFVSYTMGWYRQAPGKERELVAAITRSGGSTYYADSVKGRFTISRDNAKNTVYLQMNSLKPEDTAVYYCARVSRRGPGYTTLYSRYDYWGQVTQVTVSS | low polyreactivity |
| QVQLVESGGGLVQAGGSLRLSCAATGRSFVLNAMGWYRQAAGKERELVATINYSGSSTYYADSVKGRFTISRDNAKNTVYLQMNSLKPEDTAVYYCNRDVPYRLVYYANYYWGHGTQVTVSS | low polyreactivity |
| QVQLVESGGGLVQAGGRLSLSCAASGSIFSIYAMGWYRPSPGKERELVSGIRSTVSTNYADSVKGRFTISRDNAKNTVYLQMNSLKPEDTAVYYCATGTPTAPGNYWGQGTQVTVSS | low polyreactivity |

| Sequence | polyreactivity (PSR sort gate) |
| --- | --- |
| QVQLVESGGGLVQAGGSLRLICAASGSIFYRYAMGWYRQAPGKERELVAAISSNGVSTYYADSVKGRFTISRDNAKNTVYLQMNSLKPEDTAVYYCARDVYASPRLYTSRYNYWGQGTQVTVSS | low polyreactivity |
| QVQLVESDGGLVQAGGSLRLSCAASGSTFTWNAMGWYRQAPGKERELVAAISGDGGSTYYADSVKGRFTISRDNAKNTVYLQMNSLKPEDTAVYYCAASSAHIYSYRYNYWGQGTQVTVSS | low polyreactivity |
| QVQLVQSGGGLVQAGGSLRLSCAASGRIFRTYAMGWYRQAPGKERELVAAISSRSGSTYYADSVKGRFTISRDNAKNTVYLQMQSLKPEDTAVYYCASRYGYRYADKGSEYGYWGQGTLVTVSS | high polyreactivity |
| QVQLVESCGGLVQAGGILRLSCAASGFISSENAMGWYRQAPGKERELVAAISSGGSTNYADSVKGRFTISRDNAKNTVYLQMNRLKAEVTAVYYCAATLQGWYHEDESWGQGTQVTVSS | low polyreactivity |
| QVQLVESGGGLVQAGGSLRLSCAASGSIFRVYMGWYRQAPGKERELVATIRWSSGSTYYADSVKGRFTISRDNAKNTVYLQMNSLKPEDTAVYYCAVKGPYYDDYDYWGQGTQVTVSS | low polyreactivity |
| QVQLVESGGGLVQAGGSLRLSCAASGLTISRYAMGWYRQAPGKEREFVASISISSVDTYYADSVKGRFTISRDNAKNTVYLQMNSLKPEDTAVYYCAAAGRVGVTRYYSWGQGTQVTVSS | high polyreactivity |
| QVQLVESGGGLVQAGGSLRLSCAASGSIFDVYAMGWYRLAPGKERELVAAINWTGGSTYYADSVKGRFTISRDNAKNTVYLQMNSLKPEDTAVYYCAASYYYGTEHYDYWGQGTQVTVSS | low polyreactivity |
| QVQLVESGGGLVQAGGSLRLSCAASGSTFSKYAMGWYRQAPWKESELVASITWSGGSTYYADSVKGRFTISRDNAKNTVYLQMNSLIPEDTAVYYCNVRTIQYNVGRWWEYDYWGQVTQVTVSS | low polyreactivity |
| QVQLVESGGGLVQAGGSLSLSCAATGSTFAQNAMGWYRQAPGKERELVAAISRRGGSTYYADSVKGRFTISRDNAKNTVYVQMNSLKPEDTAVYYCAADQPVRQHHRDDYWGQGTQVTVSS | low polyreactivity |
| QVQLVESGGGLVQAGGSLRLSCAASGLTYKYYAMGWYRQAPGKERELVARISRGGNTNYADSVKGRFTISRDNAKNTVYLQMNSVKPEDTAVFYCAATVRVYDYWGQGTQVSVSS | high polyreactivity |
| QVQLVESGGGLVQAGGSLRLSCAASRFTFVRYAMGWYRQAPGKEREFVASISARGGNTFYADSVKGRFTISRDNAKNTVYLQMNSLKPEDTAVYYCAASRRVGEVSYYYWGQGTQVTVSS | high polyreactivity |
| QVQLVESGGGLVQAGGSLRLSSAASGRIFQGNSMGWYRQAPGKERELVAAITTSGGSTYYADSVKGRFTISRDNAKNTVYLQMNSLKPEDTAVYYCNVDPRKRSYDYWGQGPQVTVSS | high polyreactivity |
| QVQLVESGGGLVQAGGSLRLSCAASGSIFDYYAMGWYRQAPGKERELVAAIDSGDITYYADSVKGRFTISRDNAMNTVYLQMNSLKPEETAVYYCAAEGTGYSVGWQYGYWGQGTQVTVSS | low polyreactivity |
| QVQLVESGGGVVQAGGSLRLSCAASGSTFARKAMGWYRPAPGKERELVAAITYSGGRTYYADSVKGRVTISRDNAKNTVYLQMNRLKPVDTAVYYCAVKSFSGHGDYWGQGTQVTLSS | low polyreactivity |
| QVQLVESGGGLVQAGGSLRLSCAASGSILDRNAMGWYRQAPGKERELVAAISRSRGSTYYADSVKGRFTISRDNAKNTVYLQMNSLKPEDTAVYYCNAYYPFYTLIYGGPVRYYNFDYWGQGPQVTVSS | high polyreactivity |
| QVQLVESGGCLVQAGGRLRLICAASGRTFFFNAMGWYRQAPGKERELVAAISRGGSRTFYADSVKGRFTISRDNEKNTVYLQMNSLKPEDNAVYYCNDVAQSGRYDYWGQGTQVTVSS | high polyreactivity |
| QVQLVASGGGLVQSGGSLRLSCAASGTTFGYYAMGWYIQAPGKERELVAAITKSGGSTFYAESVKGRFTISRDNAKNTVYLQMNSLKPEDTAVYYCAARYKGQYYRQGRHDYWGQGTQVTVSS | high polyreactivity |
| QDQLVESGGGLVQAGGSLRLSCAASGRTLGKYAMGWSRQAPGQERELVAAITQRGGITYYADSVQGRFTISRDNAKNTVYLQMNSLKPEDTAVYYCAASLYSYRSPYTFYYWGQGTQVTVSS | high polyreactivity |
| QVQLVESRGGLVQAGGSLRLSCPASGFTNWRNDMGWYRQAPGKERELVADISTAGRTYYADSVKGRFTISRDNAKNTVYLQMNSLNPEDTAVYYCAKRSYYKDQPRYGYWGQGTQVTVSS | low polyreactivity |
| QVQLVESGGCLVQAGGSLRLSCAASGRILEYYTMGWYRQAPGKERELVAGITSGGTTNYADSVKGRFTISRDNAKNTVYLQMNSLKPEDTAVYYCALKQSYYFGSYFYGHEYYYWGQGTQVTVSS | low polyreactivity |
| QVQLVESGGGLVQAGGSLRLSCAASGSIFVPYAMGWYRQAPGKERELVAAINSGGGTDYADSVKGRFTISRDNAKNTVYLQMNSLKPEDTAVYYCAKSRVAYRGWDHKYYIYDYWGQGTQVTVSS | low polyreactivity |
